US7087711 (Harvard, dated 2006)

B1: GAL4(1-100)+(840-881) fusion (other, yeast, UniProt P04386 1-100, looked up)
chain: MKLLSSIEQACDICRLKKLKCSKEKPKCAKCLKNNWECRYSPKTKRSPLTRAHLTEVESRLERLEQLFLLIFPREDLDMILKMDSLQDIKALLTGLFVQDWTDQTAYNAFGITTGMFNTTTMDDVYNYLFDDEDTPPNPKKE
notes: range 1-100;range 840-881; also called G4RII' (as Gal4(840-881)) fused to Gal4(1-100); RJR182
B2: GAL4(1-100)+(840-857) (other, yeast, UniProt P04386 1-100, looked up)
chain: MKLLSSIEQACDICRLKKLKCSKEKPKCAKCLKNNWECRYSPKTKRSPLTRAHLTEVESRLERLEQLFLLIFPREDLDMILKMDSLQDIKALLTGLFVQDWTDQTAYNAFGITTGMFN
notes: range 1-100;range 840-857

Target: T1, TATA-binding protein (TBP) (yeast, UniProt P13393 1-240, limits assumed)
T1 construct: Soluble analyte, injected over Gal4 derivatives captured on DNA in SPR
T1 sequence (looked up): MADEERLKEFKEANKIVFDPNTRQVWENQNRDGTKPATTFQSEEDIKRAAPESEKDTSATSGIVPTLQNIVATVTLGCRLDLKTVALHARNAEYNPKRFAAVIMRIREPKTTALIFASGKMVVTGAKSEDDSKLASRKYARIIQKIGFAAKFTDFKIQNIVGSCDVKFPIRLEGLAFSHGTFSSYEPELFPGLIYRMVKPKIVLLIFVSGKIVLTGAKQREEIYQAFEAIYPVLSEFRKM
Experiment: SPR, Gal4 derivative captured on a DNA-bearing chip, TBP injected
Method: PROTEIN—PROTEIN INTERACTIONS: The activators (GAL4 derivatives and other activating regions fused to GAL4 DNA binding domain) were first passed over the DNA-bearing chip. Typically 10 µl of 0.01 mg/ml protein solution (~1 µM) in HBS (10 mM HEPES pH 7.4, 150 mM NaCl, 0.0005% Surfectant P20, Pharmacia) were injected at a flow rate of 5 µl/min, and the DNA was saturated by the activators. This is indicated by the first increase of the RU value on the sensorgrams. Various proteins to be tested (e.g., TBP) were then injected (typically 20 µl of […] solution in HBS at a flow rate of 5 µl/min), and their binding to the activating regions was indicated by the second increase of the RU value on the sensogram. The DNA bearing chip was then regenerated by washing with 10 µl of 0.1% SDS, a procedure that washes both proteins off the DNA, but leaves the DNA bearing chip intact. The baseline of the sensorgrams always comes back to the original level after each regeneration. A different activator was then injected to the same surface at the same concentration, and the DNA was once again saturated with the activators. As a consequence the same number of the molecules of the activators was immobilized to the chip each time. The protein to be tested (e.g., TBP) was once again injected and its binding to this activator was compared to that of the previous one. […]

Binder	Ka [M⁻¹]
B1	6e+06
B2	2e+06
